In the supplement of paper PMC10724198:
± gives the standard deviation of the averaged measurements.

Legend:
[1] = tested on: Saccharomyces cerevisiae; test: protein stability index of tFT-peptide fusion (C-terminal peptide) (PSI (0-1 scale)); higher = more stable (slower turnover)
Procedure: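 MPS profiling in S. cerevisiae of the tFT-X12 degron library: putative degron peptides plus stable controls, 12 aa, fused to the C-terminus of a sfGFP-mCherry timer. Cells are FACS-sorted into 8 mCherry/sfGFP bins and deep-sequenced. PSI runs from 0 (unstable) to 1 (stable). Backgrounds are wild type, das1Δ and doa10Δ at 30 °C, and wild type, das1Δ, cdc34-1 and cdc53-1 at 37 °C; 2-3 technical replicates each.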

[2] = tested on: Saccharomyces cerevisiae; test: as above; conditions: genetic background: wild type; temperature: 30 C
[3] = genetic background: cdc34-1, temperature: 37 C
[4] = genetic background: cdc53-1, temperature: 37 C
[5] = genetic background: das1 deletion, temperature: 30 C
[6] = genetic background: das1 deletion, temperature: 37 C
[7] = genetic background: doa10 deletion, temperature: 30 C
[8] = genetic background: wild type, temperature: 30 C
[9] = genetic background: wild type, temperature: 37 C
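Further: PSI is a weighted mean of sequencing reads over stability bins, variants kept only with over 10 reads, mCherry proximal and sfGFP distal, peptide attached via GGGS linker.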

Sequence	protein stability index [2]	also measured
GLLMCNPLLHSI	–	protein stability index [1, 3]: 0.66632 ± 0.00053; protein stability index [1, 4]: 0.734 ± 0.0075; protein stability index [1, 5]: 0.674 ± 0.038; protein stability index [1, 6]: 0.727 ± 0.03; protein stability index [1, 7]: 0.589 ± 0.032; protein stability index [1, 8]: 0.614 ± 0.011; protein stability index [1, 9]: 0.704 ± 0.016
APLPPVCPSPSL	–	protein stability index [1, 3]: 0.667 ± 0.081; protein stability index [1, 4]: 0.72 ± 0.015; protein stability index [1, 5]: 0.655 ± 0.0086; protein stability index [1, 6]: 0.713 ± 0.019; protein stability index [1, 7]: 0.679 ± 0.052; protein stability index [1, 8]: 0.657 ± 0.018; protein stability index [1, 9]: 0.72 ± 0.01
FCLRQPMLRFFI	–	protein stability index [1, 3]: 0.586 ± 0.027; protein stability index [1, 4]: 0.595 ± 0.012; protein stability index [1, 5]: 0.562 ± 0.037; protein stability index [1, 6]: 0.639 ± 0.0057; protein stability index [1, 7]: 0.479 ± 0.03; protein stability index [1, 8]: 0.442 ± 0.028; protein stability index [1, 9]: 0.54348 ± 9.7e-05
RVIESRWFNRLC	–	protein stability index [1, 3]: 0.587 ± 0.033; protein stability index [1, 4]: 0.72 ± 0.015; protein stability index [1, 5]: 0.656 ± 0.025; protein stability index [1, 6]: 0.7405 ± 0.0048; protein stability index [1, 7]: 0.0884 ± 0.011; protein stability index [1, 8]: 0.121 ± 0.019; protein stability index [1, 9]: 0.229 ± 0.018
GGGRGGRWGRLC	–	protein stability index [1, 3]: 0.65 ± 0.042; protein stability index [1, 4]: 0.743 ± 0.016; protein stability index [1, 5]: 0.654 ± 0.013; protein stability index [1, 6]: 0.7395 ± 0.007; protein stability index [1, 7]: 0.188 ± 0.018; protein stability index [1, 8]: 0.214 ± 0.024; protein stability index [1, 9]: 0.483 ± 0.012
GGCGFVWWRLLG	–	protein stability index [1, 3]: 0.544 ± 0.023; protein stability index [1, 4]: 0.6932 ± 0.0055; protein stability index [1, 5]: 0.622 ± 0.033; protein stability index [1, 6]: 0.752 ± 0.0098; protein stability index [1, 7]: 0.125 ± 0.0054; protein stability index [1, 8]: 0.144 ± 0.033; protein stability index [1, 9]: 0.199 ± 0.022
QVRPKGDPRARV	0.644 ± 0.1	–
LFPRCYFARIVV	0.484 ± 0.033	–
CVAGHPPASPPP	0.712 ± 0.059	–
LLPSPISRNRAL	0.696 ± 0.0081	–
VLLSFLHLTASS	0.606 ± 0.03	–
KKKKNNKKKKIE	0.702 ± 0.015	–
PLFHLYRSSFPF	0.721 ± 0.029	–
VVLWLASGVGGG	0.75 ± 0.061	–
FSSSSLFFSRTL	0.677 ± 0.052	–
LSPASPGPFLSC	0.72 ± 0.022	–
PPPSRSLPPRPQ	0.727 ± 0.027	–
FFSPPLPPAPLT	0.775 ± 0.057	–
TVLPAPYRSLYR	0.714 ± 0.1	–
ADWGLLVNRSHH	0.725 ± 0.084	–
KKRKGKGRDIRG	0.7025 ± 0.0016	–
AWVCRLDGPVGG	0.634 ± 0.04	–
VEMVVEFKFGTS	0.703 ± 0.18	–
NLSYPSCDPPAT	0.5836 ± 0.0032	–
FPFLAPSLVLPT	0.569 ± 0.012	–
GVVIGWAGYKGT	0.671 ± 0.043	–
YVSNKMHGSLLS	0.691 ± 0.03	–

Sequence	protein stability index [2]	also measured
KDGSKMQCNIKK	0.6763 ± 0.0014	–
RIRRERRIGLKV	0.559 ± 0.0092	–
HPHVPAPRVPHP	0.721 ± 0.047	–
LRLLPRIVSPSV	0.6 ± 0.022	–
ICHLTIFHLRRL	0.6151 ± 0.0037	–
SRRVAPEPSIPP	0.683 ± 0.018	–
FLTSTLVSSGGD	0.676 ± 0.034	–
VFFLSYGPFLAM	0.5963 ± 0.0038	–
SPPLVFPTLLPL	0.7101 ± 0.0029	–
NVACNGKGEQVL	0.7268 ± 0.0011	–
QWPCPTLSLRFS	0.632 ± 0.015	–
PSQRRTPPGLFK	0.656 ± 0.059	–
CAVPTCSRVPIV	0.601 ± 0.078	–
PPLVHHSTLPPA	0.679 ± 0.022	–
PPPPPPPLPPPP	0.667 ± 0.015	–
VCPGMLVYGRGI	0.744 ± 0.092	–
SIENEYAMERKK	0.707 ± 0.056	–
SALSLDNLIHSY	0.676 ± 0.071	–
HVGYLIMVYRGR	0.646 ± 0.072	–
SPPLPPPSPTPP	0.699 ± 0.016	–
VSWVYNFKKIRS	0.694 ± 0.078	–
PPLVPRTSPSPS	0.666 ± 0.012	–
SALGPVLCRGSY	0.675 ± 0.067	–
FVGAAALSVWGG	0.645 ± 0.0072	–
DLLCLWEFPSIP	0.731 ± 0.12	–
LFSSQAGGRLES	0.67 ± 0.019	–
SAFGGAGVLGHR	0.6799 ± 0.0027	–

Sequence	protein stability index [2]	also measured
STPSPQPYIAPT	0.735 ± 0.06	–
RGGSGGRKCLGV	0.687 ± 0.0094	–
CGVGWSWTWSGW	0.698 ± 0.078	–
PPPPLPPALFPP	0.589 ± 0.013	–
NIKKLSHRTRRI	0.857 ± 0.2	–
RRLVLPFSRLLR	0.656 ± 0.019	–
LVWLGCGLGGLC	0.745 ± 0.054	–
YKTCKEKKITNR	0.704 ± 0.014	–
SSEGTRTLIPPD	0.7 ± 0.011	–
DQVGLVLSDLIY	0.7272 ± 0.00085	–
SEHSTYFSRNCF	0.726 ± 0.032	–
YSDHFFQICGSF	0.726 ± 0.0065	–
LSSSVAPLIPPP	0.767 ± 0.031	–
VCPSPSTPPGLF	0.695 ± 0.019	–
VHRYGGFRGEMS	0.702 ± 0.08	–
PPLLLSPCPSLP	0.7229 ± 0.0034	–
AILHFTVSPRVY	0.561 ± 0.0097	–
QTPRYRGLFSAL	0.639 ± 0.038	–
SRPTAPKRQTRY	0.6886 ± 0.0046	–
RAPFEGLRCRTG	0.66 ± 0.033	–
GGFGAVPEVRAR	0.725 ± 0.035	–
SFVECVDVMGRW	0.757 ± 0.056	–
EGRPGGVGEGSQ	0.671 ± 0.011	–
YRTPRSRHLDSP	0.6938 ± 0.0068	–
GRKKLQKKIEEQ	0.6783 ± 0.0032	–
